Experimental data from the Human Domainome abundance scans (Beltran et al. 2025).

B1: Arginine-glutamic acid dipeptide repeats protein, residues 502 to 543; numbered along this chain, Q9P2R6 (parent)
chain: LKGYACRHCFTTTSKDWHHGGRENILLCTDCRIHFKKYGELP

Variants of: B1
Assay: abundance fitness (aPCA) (normalised: wild type 0, dead -1); higher = more abundant; growth selection in yeast, the domain comes from the species named
Conditions: Homo sapiens

Abundance fitness: each site, then its substitutions
I25: E -0.048 | F -0.213 | N -0.298 | W -0.073 | S -0.185 | Y -0.187 | L -0.05 | H -0.169 | C -0.258 | P -0.141 | D -0.16
C9: S -0.392 | N -0.271 | E -0.318 | V -0.451 | T -0.44 | R -0.493
Y4: K -0.178 | C -0.117 | T -0.074 | M 0.046 | N 0.165 | H -0.084 | I -0.089
A5: G 0.012 | W 0.014 | S 0.007 | H 0.044 | Y -0.136 | P -0.335 | C 0.032 | K -0.104 | V -0.039 | Q 0.039 | F 0.144 | N -0.116 | D -0.022
R22: K 0.071 | A 0.044 | N 0.008 | H -0.221 | F -0.058 | P -0.027 | V -0.039 | M -0.172
G21: V -0.23 | A -0.142 | E -0.154 | L -0.274 | I -0.517
F10: V -0.331 | M -0.083 | T -0.099 | Q 0.03 | C -0.036 | A 0.054 | Y -0.101 | D -0.08 | S 0.015 | I -0.352
K37: M -0.089 | T -0.032 | A -0.034 | C -0.168 | H -0.182 | P -0.278 | R -0.026 | D -0.013 | L -0.194
C31: K -0.732 | W -1.33 | A -0.981 | L -1.1 | Y -0.911 | H -0.733 | R -1.16
R7: A 0.074 | D -0.142 | I -0.188 | Q 0.036 | K 0.087
L1: Q -0.245 | W -0.187 | G 0.043 | R -0.083 | T 0.066 | I 0.149
T29: D -0.151 | N -0.07 | C -0.096 | Q -0.106 | R -0.125 | P -0.347 | E -0.105 | V -0.154 | I -0.094 | Y 0.02
K2: F -0.078 | Y -0.477 | W -0.401 | I -0.241 | M -0.09 | V -0.023 | A -0.116 | R -0.153 | L -0.196 | T -0.367
Y38: M -0.117 | Q -0.062 | C 0.059 | A -0.077 | S -0.017 | I -0.298 | K -0.002 | L -0.123
W17: T -0.227 | C -0.295 | G -0.154 | D -0.197 | P -0.149 | A -0.191 | R -0.276 | M -0.195 | N -0.276
D16: N -0.277 | Q -0.449 | A -0.358 | T -0.391 | H -0.501 | W -0.515 | Y -0.555 | F -0.48 | S -0.263
T11: F -0.561 | S -0.083 | R -0.236 | D -0.277 | C -0.219 | W -0.589 | K -0.172 | L -0.375 | V -0.195
P42: R -0.654
L26: W -0.188 | G -0.307 | A -0.311 | F -0.354 | D -0.244 | Q -0.376 | M 0.023 | T -0.05 | H -0.386 | I 0.004
N24: W -0.189 | K -0.157 | L -0.191 | T -0.239 | R -0.146 | Y -0.249 | G -0.026 | H -0.094 | V -0.297 | A -0.146
H8: L -0.489 | Y -0.238 | N 0.064 | E -0.348 | F -0.387 | A -0.189 | P -0.836 | R -0.229 | W -0.044 | K -0.368 | G -0.222 | I -0.292
C28: M -1.31 | Q -0.746 | R -0.921 | V -0.851 | Y -0.617 | A -0.873
I33: R 0.026 | M -0.007 | P -0.465 | A 0.079 | K -0.011 | W -0.059
H18: C -0.03 | D 0.115 | W -0.21 | Y -0.089 | T -0.029 | I -0.07
D30: E -0.069 | G -0.044 | T 0.068 | S -0.104
H34: C 0.05 | L -0.282 | A -0.033 | Y -0.102 | V -0.3 | M -0.204
K36: P -0.363 | A 0.081 | W -0.147 | F 0.294 | V -0.038 | S 0.008 | Q 0.123 | C -0.134
K15: M -0.064 | E 0.007 | P -0.095 | W -0.489 | Q -0.049 | A -0.107 | G -0.174 | S -0.162 | V -0.091 | I -0.222 | T -0.002
L41: C -0.223 | G -0.276 | T -0.044 | D -0.245 | H -0.416 | K -0.309 | I -0.46
G3: A -0.047 | S -0.107 | Y -0.205 | I -0.246 | M -0.111 | P -0.189 | K -0.146 | Q -0.373 | F -0.247 | L -0.205
R32: K -0.137 | Q -0.035 | W 0.053 | L -0.058 | C -0.114 | V -0.14 | S -0.013 | T -0.088 | E -0.045
T12: V -0.343 | Y -0.549 | F -0.314 | C -0.304 | M -0.241 | P -0.317 | Q -0.159
G20: W -0.141 | D 0.097 | T -0.292 | A -0.16 | C -0.091 | S -0.212 | K -0.379 | I -0.151
H19: G -0.073 | T 0.095 | F -0.064 | D -0.225 | I -0.045 | S -0.026 | Y -0.246 | K -0.047
E23: K -0.136 | S -0.174 | D 0.011 | Y -0.489 | M -0.187
G39: A -0.108 | N 0.027 | L -0.249 | Y -0.259 | V -0.42 | R -0.118 | D 0.053 | S -0.171
C6: W -1.28 | V -1.12 | K -0.886 | A -0.969 | M -1.1 | S -0.939 | R -0.996 | F -1.03 | H -0.601
E40: V -0.036 | Q -0.012 | I -0.095 | D -0.101 | F -0.472 | P -0.521 | T -0.078 | C -0.073 | Y -0.143 | K -0.044
F35: C -0.191 | M -0.163 | D -0.112 | A -0.089 | L -0.057 | Q -0.058
L27: A -0.405 | Y -0.301 | W -0.259 | P -0.396 | R -0.554 | G -0.494 | E -0.318 | Q -0.498 | K -0.511 | C -0.217 | M -0.209
S14: R -0.451 | L -0.536 | M -0.455 | W -0.657 | F -0.516 | D -0.073
T13: A -0.054 | C -0.164 | Y -0.223 | H -0.045 | W -0.31 | E 0.014 | P -0.484 | Q -0.039
